{
  "source": "paper PMC11700292",
  "about": "“Specific inhibition of fibroblast growth factor receptor 1 signaling by a DNA aptamer”",
  "molecules": {"B1": {"name": "VZ23 (structured_DNA)", "DNA": "GGGATACAGGGCTTTGTCTATGGTGTGGATGGCGGATACC"}},
  "key": {"[1]": {"biological_target": "FGFR1b extracellular domain-Fc (human) (UniProt P11362)", "sequence (P11362 whole entry, the tested form may be a part)": "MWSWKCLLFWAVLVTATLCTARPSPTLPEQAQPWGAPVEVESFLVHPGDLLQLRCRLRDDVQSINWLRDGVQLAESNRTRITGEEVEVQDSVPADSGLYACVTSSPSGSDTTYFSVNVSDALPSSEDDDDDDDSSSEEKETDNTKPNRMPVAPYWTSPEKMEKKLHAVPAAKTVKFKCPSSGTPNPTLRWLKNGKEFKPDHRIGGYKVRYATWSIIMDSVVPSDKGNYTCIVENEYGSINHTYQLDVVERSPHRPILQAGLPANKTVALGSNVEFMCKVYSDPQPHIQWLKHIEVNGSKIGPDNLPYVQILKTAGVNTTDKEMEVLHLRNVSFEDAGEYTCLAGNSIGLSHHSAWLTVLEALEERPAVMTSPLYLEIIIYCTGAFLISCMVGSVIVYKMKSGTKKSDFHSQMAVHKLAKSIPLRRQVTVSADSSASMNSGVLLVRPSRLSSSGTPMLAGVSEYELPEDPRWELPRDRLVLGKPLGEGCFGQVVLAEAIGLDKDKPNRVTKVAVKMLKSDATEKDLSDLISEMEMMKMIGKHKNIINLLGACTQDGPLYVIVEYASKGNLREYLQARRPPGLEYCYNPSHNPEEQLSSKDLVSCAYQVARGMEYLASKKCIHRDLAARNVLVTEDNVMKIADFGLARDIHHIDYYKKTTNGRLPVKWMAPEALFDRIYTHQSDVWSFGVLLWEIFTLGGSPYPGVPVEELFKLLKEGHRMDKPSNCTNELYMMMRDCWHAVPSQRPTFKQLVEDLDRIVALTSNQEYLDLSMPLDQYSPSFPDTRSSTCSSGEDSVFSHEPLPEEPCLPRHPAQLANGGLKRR", "assay": "BLI", "details": "BLI (Octet K2, protein A sensor, FGFR-Fc 5 ug/mL), VZ23 31.25-500 nM in PBS (8.1 mM Na2HPO4, 1.5 mM NaH2PO4, 137 mM NaCl, 2.7 mM KCl as given for NMR) with or …"}, "[2]": {"biological_target": "FGFR1c extracellular domain-Fc;FGF1 (human;human, UniProt P11362-1;P05230 22-376;16-155, |)", "sequence (P11362 22-376, chain 1 of 2)": "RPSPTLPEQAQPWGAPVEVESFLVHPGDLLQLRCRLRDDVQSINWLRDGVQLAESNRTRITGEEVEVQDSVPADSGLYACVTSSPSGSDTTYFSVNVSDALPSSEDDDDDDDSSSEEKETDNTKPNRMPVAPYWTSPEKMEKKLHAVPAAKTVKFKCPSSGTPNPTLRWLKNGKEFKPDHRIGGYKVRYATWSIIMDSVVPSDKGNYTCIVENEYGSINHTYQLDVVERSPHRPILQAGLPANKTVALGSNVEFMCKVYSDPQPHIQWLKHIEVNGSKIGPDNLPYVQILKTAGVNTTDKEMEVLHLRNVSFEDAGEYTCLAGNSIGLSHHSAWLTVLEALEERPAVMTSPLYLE", "sequence (P05230 16-155, chain 2 of 2)": "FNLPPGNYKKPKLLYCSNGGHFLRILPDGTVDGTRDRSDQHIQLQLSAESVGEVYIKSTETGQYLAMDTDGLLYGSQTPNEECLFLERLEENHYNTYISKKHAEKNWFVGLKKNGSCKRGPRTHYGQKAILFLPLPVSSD", "assay": "BLI; preformed FGF1:FGFR1c complex; 250 nM each; BLI (Octet K2, protein A sensor, FGFR-Fc 5 ug/mL), VZ23 31.25-500 nM in PBS (8.1 mM Na2HPO4, 1.5 mM NaH2PO4, 137 mM NaCl, 2.7 mM KCl as given for NMR) with or without 2 mM MgCl2; pH 7.3 (stated for CD); temperature not stated", "details": "protein: recombinant;commercial; tags: IgG1 Fc fusion;; antiparallel G-quadruplex-like fold"}, "[3]": {"biological_target": "T1, FGFR1c extracellular domain-Fc (human, UniProt P11362-1 22-376)", "T1 sequence (P11362 22-376)": "as the sequence (P11362 22-376, chain 1 of 2) above", "assay": "BLI; PBS, no Mg2+; BLI (Octet K2, protein A sensor, FGFR-Fc 5 ug/mL), VZ23 31.25-500 nM in PBS (8.1 mM Na2HPO4, 1.5 mM NaH2PO4, 137 mM NaCl, 2.7 mM KCl as given for NMR) with or without 2 mM MgCl2; pH 7.3 (stated for CD); temperature not stated", "details": "protein: recombinant; tags: IgG1 Fc fusion; antiparallel G-quadruplex-like fold"}, "[4]": {"biological_target": "FGFR3b extracellular domain-Fc (human, UniProt P22607-2 23-377)", "sequence (P22607 other isoform, or with tags, fused parts or gaps)": "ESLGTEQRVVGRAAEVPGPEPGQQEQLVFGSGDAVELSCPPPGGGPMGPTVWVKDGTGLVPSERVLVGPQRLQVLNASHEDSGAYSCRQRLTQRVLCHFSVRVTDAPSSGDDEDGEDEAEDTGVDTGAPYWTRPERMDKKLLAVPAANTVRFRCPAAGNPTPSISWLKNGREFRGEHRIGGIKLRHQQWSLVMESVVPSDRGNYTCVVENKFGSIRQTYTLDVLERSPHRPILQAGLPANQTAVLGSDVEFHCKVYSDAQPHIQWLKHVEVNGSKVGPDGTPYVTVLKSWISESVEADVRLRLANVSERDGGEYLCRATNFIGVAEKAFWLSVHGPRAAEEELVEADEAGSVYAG", "assay": "BLI; BLI (Octet K2, protein A sensor, FGFR-Fc 5 ug/mL), VZ23 31.25-500 nM in PBS (8.1 mM Na2HPO4, 1.5 mM NaH2PO4, 137 mM NaCl, 2.7 mM KCl as given for NMR) with or without 2 mM MgCl2; pH 7.3 (stated for CD); temperature not stated", "details": "protein: recombinant; tags: IgG1 Fc fusion; antiparallel G-quadruplex-like fold"}, "[5]": {"biological_target": "FGFR2c extracellular domain-Fc (human, UniProt P21802 22-377)", "sequence (P21802 22-377)": "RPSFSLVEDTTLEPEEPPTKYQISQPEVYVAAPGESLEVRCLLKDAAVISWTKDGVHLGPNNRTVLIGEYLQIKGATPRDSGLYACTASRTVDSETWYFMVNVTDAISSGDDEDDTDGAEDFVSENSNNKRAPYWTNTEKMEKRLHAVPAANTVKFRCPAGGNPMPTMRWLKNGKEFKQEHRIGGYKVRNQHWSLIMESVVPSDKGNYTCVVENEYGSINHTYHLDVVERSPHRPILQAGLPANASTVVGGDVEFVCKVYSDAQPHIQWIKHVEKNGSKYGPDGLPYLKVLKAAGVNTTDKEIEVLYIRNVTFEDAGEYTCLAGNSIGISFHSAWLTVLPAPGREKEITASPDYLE", "assay": "BLI; BLI (Octet K2, protein A sensor, FGFR-Fc 5 ug/mL), VZ23 31.25-500 nM in PBS (8.1 mM Na2HPO4, 1.5 mM NaH2PO4, 137 mM NaCl, 2.7 mM KCl as given for NMR) with or without 2 mM MgCl2; pH 7.3 (stated for CD); temperature not stated", "details": "protein: recombinant; tags: IgG1 Fc fusion; antiparallel G-quadruplex-like fold"}, "[6]": {"biological_target": "T2, FGFR4 extracellular domain-Fc (human, UniProt P22455 22-369)", "T2 sequence": "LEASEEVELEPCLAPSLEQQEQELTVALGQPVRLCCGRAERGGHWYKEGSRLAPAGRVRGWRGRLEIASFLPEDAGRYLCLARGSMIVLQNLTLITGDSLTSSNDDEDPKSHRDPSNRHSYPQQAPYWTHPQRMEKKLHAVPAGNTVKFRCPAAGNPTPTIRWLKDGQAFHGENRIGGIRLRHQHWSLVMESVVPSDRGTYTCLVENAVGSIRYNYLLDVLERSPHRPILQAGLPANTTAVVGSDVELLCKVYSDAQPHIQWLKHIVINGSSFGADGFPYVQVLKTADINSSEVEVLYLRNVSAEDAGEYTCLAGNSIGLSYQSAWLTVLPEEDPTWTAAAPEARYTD", "assay": "BLI; BLI (Octet K2, protein A sensor, FGFR-Fc 5 ug/mL), VZ23 31.25-500 nM in PBS (8.1 mM Na2HPO4, 1.5 mM NaH2PO4, 137 mM NaCl, 2.7 mM KCl as given for NMR) with or without 2 mM MgCl2; pH 7.3 (stated for CD); temperature not stated", "details": "protein: recombinant; tags: IgG1 Fc fusion; antiparallel G-quadruplex-like fold"}, "[7]": {"biological_target": "FGFR3c extracellular domain-Fc (human, UniProt P22607 23-375)", "sequence (P22607 23-375)": "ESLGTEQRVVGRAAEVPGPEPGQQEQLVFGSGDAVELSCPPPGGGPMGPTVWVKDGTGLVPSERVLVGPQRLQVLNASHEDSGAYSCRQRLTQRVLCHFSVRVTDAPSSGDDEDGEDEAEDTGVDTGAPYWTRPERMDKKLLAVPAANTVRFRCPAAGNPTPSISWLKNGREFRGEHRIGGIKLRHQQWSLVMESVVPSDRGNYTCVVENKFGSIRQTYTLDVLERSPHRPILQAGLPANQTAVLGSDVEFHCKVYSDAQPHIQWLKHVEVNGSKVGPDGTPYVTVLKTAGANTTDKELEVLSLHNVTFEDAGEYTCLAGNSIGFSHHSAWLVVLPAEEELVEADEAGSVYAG", "assay": "BLI; BLI (Octet K2, protein A sensor, FGFR-Fc 5 ug/mL), VZ23 31.25-500 nM in PBS (8.1 mM Na2HPO4, 1.5 mM NaH2PO4, 137 mM NaCl, 2.7 mM KCl as given for NMR) with or without 2 mM MgCl2; pH 7.3 (stated for CD); temperature not stated", "details": "protein: recombinant; tags: IgG1 Fc fusion; antiparallel G-quadruplex-like fold"}, "[8]": {"biological_target": "FGFR2b extracellular domain-Fc (human, UniProt P21802-3 22-378)", "sequence (P21802 other isoform, or with tags, fused parts or gaps)": "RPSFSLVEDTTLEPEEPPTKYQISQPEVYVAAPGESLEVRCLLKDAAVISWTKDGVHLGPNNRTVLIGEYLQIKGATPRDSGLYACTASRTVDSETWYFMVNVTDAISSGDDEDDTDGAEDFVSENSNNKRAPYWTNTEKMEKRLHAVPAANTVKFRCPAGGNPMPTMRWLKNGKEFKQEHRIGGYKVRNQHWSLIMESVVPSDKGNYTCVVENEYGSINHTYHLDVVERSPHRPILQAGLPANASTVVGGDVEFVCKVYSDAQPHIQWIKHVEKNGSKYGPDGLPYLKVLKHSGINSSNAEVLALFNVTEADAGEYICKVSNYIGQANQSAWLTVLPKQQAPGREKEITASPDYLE", "assay": "BLI; BLI (Octet K2, protein A sensor, FGFR-Fc 5 ug/mL), VZ23 31.25-500 nM in PBS (8.1 mM Na2HPO4, 1.5 mM NaH2PO4, 137 mM NaCl, 2.7 mM KCl as given for NMR) with or without 2 mM MgCl2; pH 7.3 (stated for CD); temperature not stated", "details": "protein: recombinant; tags: IgG1 Fc fusion; antiparallel G-quadruplex-like fold"}, "[9]": {"biological_target": "T1, FGFR1c extracellular domain-Fc", "assay": "BLI; 2 mM Mg2+; BLI (Octet K2, protein A sensor, FGFR-Fc 5 ug/mL), VZ23 31.25-500 nM in PBS (8.1 mM Na2HPO4, 1.5 mM NaH2PO4, 137 mM NaCl, 2.7 mM KCl as given for NMR) with or without 2 mM MgCl2; pH 7.3 (stated for CD); temperature not stated", "details": "protein: recombinant; tags: IgG1 Fc fusion; antiparallel G-quadruplex-like fold"}},
  "data": [
    {"molecule": "GGGATACAGGGCTTTGTCTATGGTGTGGATGGCGGATACC [VZ23]", "values": [
      {"measurement": "Kd", "setting": "[1]; 2 mM Mg2+", "result": 29.8, "unit": "nM"},
      {"measurement": "Kd", "setting": "[1]; PBS, no Mg2+", "result": 54.6, "unit": "nM"}
    ]},
    {"molecule": "B1", "values": [
      {"measurement": "binding result", "setting": "[2]", "result": "binds"},
      {"measurement": "Kd", "setting": "[3]", "result": "162 ± 48.7", "unit": "nM"},
      {"measurement": "binding result", "setting": "[4]", "result": "no binding"},
      {"measurement": "binding result", "setting": "[5]", "result": "no binding"},
      {"measurement": "binding result", "setting": "[6]", "result": "no binding"},
      {"measurement": "binding result", "setting": "[7]", "result": "no binding"},
      {"measurement": "binding result", "setting": "[8]", "result": "no binding"},
      {"measurement": "Kd", "setting": "[9]", "result": "65.4 ± 5.5", "unit": "nM"}
    ]}
  ]
}
